Values of other authors, collected in paper PMC5627252.
Like-named read-outs stand apart in the source and are kept apart here. Each block holds one substance with its values, some of them ahead of it.

What was measured:
FcγRIIIa (Homo sapiens) [1] = molecular target: FcγRIIIa (Homo sapiens) (UniProt P08637)
FcγRIIIa (Homo sapiens) [2] = molecular target: FcγRIIIa (Homo sapiens) (UniProt P08637); remark: listed apart in the source
FcγRIIIa (Homo sapiens) [3] = molecular target: FcγRIIIa (Homo sapiens) (UniProt P08637); remark: listed apart in the source

Sequence of FcγRIIIa (Homo sapiens) (P08637 17-254): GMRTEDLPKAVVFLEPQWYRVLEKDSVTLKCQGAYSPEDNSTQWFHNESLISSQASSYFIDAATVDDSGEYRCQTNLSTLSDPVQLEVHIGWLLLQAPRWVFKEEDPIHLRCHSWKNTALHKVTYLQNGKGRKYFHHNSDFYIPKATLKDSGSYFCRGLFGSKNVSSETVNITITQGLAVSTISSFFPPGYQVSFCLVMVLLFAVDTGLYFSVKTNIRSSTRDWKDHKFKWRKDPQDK

- Kd (FcγRIIIa (Homo sapiens) [1]): 995 nM
Substance: IgG1 Fc-GlcNAc Fc (from UniProt P01857)

- Kd (FcγRIIIa (Homo sapiens) [2]): 32 nM
Substance: IgG1 Fc-Man5 Fc (from UniProt P01857)

- Kd (FcγRIIIa (Homo sapiens) [3]): 26 nM
Substance: IgG1 Fc-Man8 Fc (from UniProt P01857)
